This note sets out measurements from patent US20140087995A1 (published 2014).

Numbered stars: 1 amine (or outer) side, 2 acyl side, 3 side chain; on linkers, the order of the positions; unused ones are H or OH. Bridge positions count the residues as written; N and C are the ends. Side chains are listed from the residue outwards. Ends that are not written are not given here. * marks the point of attachment. C20 diacid = O=C(O)CCCCCCCCCCCCCCCCCCC(=O)*; γGlu = O=C(O)[C@H](CCC(=O)[*:2])N[*:1]; AEEA = NCCOCCOCC(=O)O

For assay [1], the target named is T1, human calcitonin receptor (human, UniProt P30988 25-474).
T1 construct: whole, on cells; Membranes prepared from a stably transfected BHK cell line (Assay VII); also called hCTR; hCT
T1 sequence (looked up): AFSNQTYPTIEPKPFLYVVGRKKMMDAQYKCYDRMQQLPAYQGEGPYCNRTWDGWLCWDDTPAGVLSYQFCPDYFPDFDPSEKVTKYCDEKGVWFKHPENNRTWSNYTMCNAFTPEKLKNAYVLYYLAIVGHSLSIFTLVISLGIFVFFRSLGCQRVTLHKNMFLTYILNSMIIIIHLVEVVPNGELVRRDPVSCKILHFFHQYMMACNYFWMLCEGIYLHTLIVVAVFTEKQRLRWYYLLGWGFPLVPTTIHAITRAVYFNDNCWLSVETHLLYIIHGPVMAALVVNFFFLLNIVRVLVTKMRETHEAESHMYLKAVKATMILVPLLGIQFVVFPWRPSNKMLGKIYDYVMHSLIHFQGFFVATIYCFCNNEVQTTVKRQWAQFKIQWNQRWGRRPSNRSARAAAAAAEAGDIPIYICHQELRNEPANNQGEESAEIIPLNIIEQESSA
Kind of assay: ratio of binding IC50s: human calcitonin receptor / human amylin receptor (reference). On the procedure: The resulting pellet was resuspended, homogenized and centrifuged (20.000 rpm, 15 min) in a buffer containing 20 mM Na-HEPES and 0.1 mM EDTA (pH 7.4, buffer 2). The resulting pellet was resuspended in buffer 2 and protein concentration was measured (BCA protein Assay, Pierce). The homogenate was kept cold during the whole procedure. The membranes were kept at −80° C. until use. The assay was performed in a 384 well Optiplate (PerkinElmer) in a total volume of 40 ul. Membranes were mixed with SPA beads. Final concentration of membranes 35 ng/μL final and SPA beads was 0.05 mg/well. Test-compounds were dissolved in DMSO and further diluted in assay buffer (50 mM Hepes, pH 7.4, 1 mM CaCl2, 5 mM MgCl₂, 0.1% OA and 0.02% Tween20). […] The final mixture was incubated with shaking at 400 rpm for 120 min at 25° C. prior to centrifugation (1500 rpm, 10 min). Samples were analyzed on TopCounter™ (Packard). The IC₅₀ was calculated using (one site binding competition analysis) GraphPad Prism5 as a measure of receptor affinity.
Membranes were prepared in the following way; the cells were rinsed with PBS and incubated with Versene for approximately 5 min before harvesting. The cells were flushed with PBS and the cell-suspension was centrifuged for 5 min at 1000 rpm. Cells were homogenized (Ultrathurrax) in a buffer containing 20 mM Na-HEPES and 10 mM EDTA (pH 7.4) and centrifuged at 20.000 rpm for 15 min. The resulting pellet was resuspended, homogenized and centrifuged (20.000 rpm, 15 min) in a buffer containing 20 mM Na-HEPES and 0.1 mM EDTA (pH 7.4, buffer 2). The resulting pellet was resuspended in buffer 2 and protein concentration was measured (BCA protein Assay, Pierce). The homogenate was kept cold during the whole procedure. The membranes were kept at −80° C. until use. Assay was performed in a 384 well Optiplate (PerkinElmer) in a total volume of 40 ul. Membranes were mixed with SPA beads.

The target in assay [2] is T2, rat calcitonin receptor (rat, UniProt P32214 25-516).
T2 construct: whole, on cells; Membranes prepared from transiently transfected BHK tk'ts 13 cells (Assay VIII); also called rCTR; rCT
T2 sequence (looked up): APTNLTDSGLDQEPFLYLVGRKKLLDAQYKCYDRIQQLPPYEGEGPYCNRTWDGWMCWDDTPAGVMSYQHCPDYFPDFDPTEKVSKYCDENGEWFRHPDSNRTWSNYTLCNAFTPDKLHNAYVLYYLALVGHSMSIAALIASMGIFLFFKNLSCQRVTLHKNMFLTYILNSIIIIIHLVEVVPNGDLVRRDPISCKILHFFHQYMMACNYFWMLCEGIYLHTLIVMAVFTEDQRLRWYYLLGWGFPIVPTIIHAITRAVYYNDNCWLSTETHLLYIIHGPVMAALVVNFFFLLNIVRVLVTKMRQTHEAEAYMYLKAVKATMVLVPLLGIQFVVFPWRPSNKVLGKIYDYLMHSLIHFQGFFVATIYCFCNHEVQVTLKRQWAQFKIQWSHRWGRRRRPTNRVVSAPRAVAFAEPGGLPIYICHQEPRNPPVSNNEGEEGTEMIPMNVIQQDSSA
The assay can be described thus: SPA competition vs 125I-calcitonin, membranes of BHK cells with rat calcitonin receptor (Assay VIII).

The target of assay [3] is T2, rat calcitonin receptor. Kind of assay: ratio of binding IC50s: rat calcitonin receptor / rat amylin receptor (reference).
For assay [4], the target named is T3, rat amylin receptor (rat calcitonin receptor + rat RAMP 3) (rat, UniProt P32214 25-516; Q9JJ73 23-147).
T3 construct: whole, on cells; Membranes prepared from transiently transfected BHK tk'ts 13 cells (Assay VI); also called rAmylin-R; rAmylin
T3 sequence (looked up) 1: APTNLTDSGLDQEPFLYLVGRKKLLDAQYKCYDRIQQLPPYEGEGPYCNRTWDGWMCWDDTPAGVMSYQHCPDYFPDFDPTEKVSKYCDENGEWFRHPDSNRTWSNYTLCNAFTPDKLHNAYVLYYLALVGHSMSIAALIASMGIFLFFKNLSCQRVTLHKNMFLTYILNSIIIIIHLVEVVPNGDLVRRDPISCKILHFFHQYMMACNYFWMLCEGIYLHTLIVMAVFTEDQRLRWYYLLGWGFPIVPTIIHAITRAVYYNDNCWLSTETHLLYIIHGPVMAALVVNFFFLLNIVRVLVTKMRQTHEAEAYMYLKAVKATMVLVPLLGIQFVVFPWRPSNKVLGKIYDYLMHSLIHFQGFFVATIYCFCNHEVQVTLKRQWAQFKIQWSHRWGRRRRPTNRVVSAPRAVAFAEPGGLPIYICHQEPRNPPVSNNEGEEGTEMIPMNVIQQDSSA
T3 sequence (looked up) 2: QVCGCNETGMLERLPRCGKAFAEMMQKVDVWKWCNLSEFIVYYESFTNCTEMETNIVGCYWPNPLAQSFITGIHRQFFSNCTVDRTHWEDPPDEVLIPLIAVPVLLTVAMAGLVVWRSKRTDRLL
Kind of assay: SPA competition vs 125I-rat amylin, membranes of BHK cells with rat calcitonin receptor + rat RAMP3 (Assay VI). On the procedure:
The binding assay was performed using scintillation proximity assay (SPA) beads (RPNQ0001) from PerkinElmer and cell membranes from the Amylin 3(a)/CRE-luc cells (as described in Assay (II)) were used. Membranes were prepared in the following way; the cells were rinsed with PBS and incubated with Versene for approximately 5 min before harvesting. The cells were flushed with PBS and the cell-suspension was centrifuged for 5 min at 1000 rpm. Cells were homogenized (ultrathurrax) in a buffer containing 20 mM Na-HEPES and 10 mM EDTA (pH 7.4) and centrifuged at 20.000 rpm for 15 min. The resulting pellet was resuspended, homogenized and centrifuged (20.000 rpm, 15 min) in a buffer containing 20 mM Na-HEPES and 0.1 mM EDTA (pH 7.4, buffer 2). The resulting pellet was resuspended in buffer 2 and protein concentration was measured (BCA protein Assay, Pierce). The homogenate was kept cold during the whole procedure. The membranes were kept at −80° C. until use. The assay was performed in a 384 well Optiplate (PerkinElmer) in a total volume of 40 ul. Membranes were mixed with SPA beads. Final concentration of membranes 35 ng/μL final and SPA beads was 0.05 mg/well. Test-compounds were dissolved in DMSO and further diluted in assay buffer (50 mM Hepes, pH 7.4, 1 mM CaCl2, 5 mM MgCl₂, 0.1% OA and 0.02% Tween20). […] The final mixture was incubated with shaking at 400 rpm for 120 min at 25° C. prior to centrifugation (1500 rpm, 10 min). Samples were analyzed on TopCounter™ (Packard). The IC₅₀ was calculated using (one site binding competition analysis) GraphPad Prism5 as a measure of receptor affinity.
Cells were grown in DMEM with 10% FBS and 1% Pen/Strep. Approximately 48 hours after transfection, the cells were harvested and membranes were prepared.

B1: N^ε1-[2-[2-[2-[[(4S)-4-carboxy-4-(19-carboxynonadecanoylamino)butanoyl]amino]ethoxy]ethoxy]acetyl]-[Arg14,Arg17,Pro21,Pro27,Pro31]-h-amylin (peptide)
peptide: K([AEEA-γGlu-C20 diacid])CNTATCATQRLARFLRHSSPNFGAIPSSTPVGSNTY-NH2
modifications: disulfide 2-7; N-terminus assumed
SMILES: CC[C@H](C)[C@H](NC(=O)[C@H](C)NC(=O)CNC(=O)[C@H](Cc1ccccc1)NC(=O)[C@H](CC(N)=O)NC(=O)[C@@H]1CCCN1C(=O)[C@H](CO)NC(=O)[C@H](CO)NC(=O)[C@H](Cc1c[nH]cn1)NC(=O)[C@H](CCCNC(=N)N)NC(=O)[C@H](CC(C)C)NC(=O)[C@H](Cc1ccccc1)NC(=O)[C@H](CCCNC(=N)N)NC(=O)[C@H](C)NC(=O)[C@H](CC(C)C)NC(=O)[C@H](CCCNC(=N)N)NC(=O)[C@H](CCC(N)=O)NC(=O)[C@@H](NC(=O)[C@H](C)NC(=O)[C@@H]1CSSC[C@H](NC(=O)[C@@H](N)CCCCNC(=O)COCCOCCNC(=O)CC[C@H](NC(=O)CCCCCCCCCCCCCCCCCCC(=O)O)C(=O)O)C(=O)N[C@@H](CC(N)=O)C(=O)N[C@@H]([C@@H](C)O)C(=O)N[C@@H](C)C(=O)N[C@@H]([C@@H](C)O)C(=O)N1)[C@@H](C)O)C(=O)N1CCC[C@H]1C(=O)N[C@@H](CO)C(=O)N[C@@H](CO)C(=O)N[C@H](C(=O)N1CCC[C@H]1C(=O)N[C@H](C(=O)NCC(=O)N[C@@H](CO)C(=O)N[C@@H](CC(N)=O)C(=O)N[C@H](C(=O)N[C@@H](Cc1ccc(O)cc1)C(N)=O)[C@@H](C)O)C(C)C)[C@@H](C)O
notes: Analogue of human amylin; also called compound 64
As to B1, in assay [1], the “Ratio hCT/hAmylin binding” value stood at 126. Moreover, the values for the concentration for half-maximal inhibition (IC50) in assay [2] and in assay [4] were 128 nM and 1.97 nM, respectively. The “Ratio rCT/rAmylin binding” value in assay [3] amounted to 64.7.

B2: N^ε1-[2-[2-[2-[[(4S)-4-carboxy-4-(19-carboxynonadecanoylamino)butanoyl]amino]ethoxy]ethoxy]acetyl]-[Arg14,Arg17,Pro21,Pro27]-h-amylin (peptide)
peptide: K([AEEA-γGlu-C20 diacid])CNTATCATQRLARFLRHSSPNFGAIPSSTNVGSNTY-NH2
modifications: disulfide 2-7; N-terminus assumed
SMILES: CC[C@H](C)[C@H](NC(=O)[C@H](C)NC(=O)CNC(=O)[C@H](Cc1ccccc1)NC(=O)[C@H](CC(N)=O)NC(=O)[C@@H]1CCCN1C(=O)[C@H](CO)NC(=O)[C@H](CO)NC(=O)[C@H](Cc1c[nH]cn1)NC(=O)[C@H](CCCNC(=N)N)NC(=O)[C@H](CC(C)C)NC(=O)[C@H](Cc1ccccc1)NC(=O)[C@H](CCCNC(=N)N)NC(=O)[C@H](C)NC(=O)[C@H](CC(C)C)NC(=O)[C@H](CCCNC(=N)N)NC(=O)[C@H](CCC(N)=O)NC(=O)[C@@H](NC(=O)[C@H](C)NC(=O)[C@@H]1CSSC[C@H](NC(=O)[C@@H](N)CCCCNC(=O)COCCOCCNC(=O)CC[C@H](NC(=O)CCCCCCCCCCCCCCCCCCC(=O)O)C(=O)O)C(=O)N[C@@H](CC(N)=O)C(=O)N[C@@H]([C@@H](C)O)C(=O)N[C@@H](C)C(=O)N[C@@H]([C@@H](C)O)C(=O)N1)[C@@H](C)O)C(=O)N1CCC[C@H]1C(=O)N[C@@H](CO)C(=O)N[C@@H](CO)C(=O)N[C@H](C(=O)N[C@@H](CC(N)=O)C(=O)N[C@H](C(=O)NCC(=O)N[C@@H](CO)C(=O)N[C@@H](CC(N)=O)C(=O)N[C@H](C(=O)N[C@@H](Cc1ccc(O)cc1)C(N)=O)[C@@H](C)O)C(C)C)[C@@H](C)O
notes: Analogue of human amylin; also called compound 82
As to B2, the “Ratio hCT/hAmylin binding” value in assay [1] worked out at 140. For the same molecule, the results for the IC50 in assay [2] and in assay [4] were 143 nM and 1.64 nM, respectively. Also, in assay [3], the “Ratio rCT/rAmylin binding” value was 87.

B3: N^ε1-[2-[2-[2-[[(4S)-4-carboxy-4-(19-carboxynonadecanoylamino)butanoyl]amino]ethoxy]ethoxy]acetyl]-[Arg17,Pro21,Pro27,Arg34]-h-amylin (peptide)
peptide: K([AEEA-γGlu-C20 diacid])CNTATCATQRLANFLRHSSPNFGAIPSSTNVGRNTY-NH2
modifications: disulfide 2-7; N-terminus assumed
SMILES: CC[C@H](C)[C@H](NC(=O)[C@H](C)NC(=O)CNC(=O)[C@H](Cc1ccccc1)NC(=O)[C@H](CC(N)=O)NC(=O)[C@@H]1CCCN1C(=O)[C@H](CO)NC(=O)[C@H](CO)NC(=O)[C@H](Cc1c[nH]cn1)NC(=O)[C@H](CCCNC(=N)N)NC(=O)[C@H](CC(C)C)NC(=O)[C@H](Cc1ccccc1)NC(=O)[C@H](CC(N)=O)NC(=O)[C@H](C)NC(=O)[C@H](CC(C)C)NC(=O)[C@H](CCCNC(=N)N)NC(=O)[C@H](CCC(N)=O)NC(=O)[C@@H](NC(=O)[C@H](C)NC(=O)[C@@H]1CSSC[C@H](NC(=O)[C@@H](N)CCCCNC(=O)COCCOCCNC(=O)CC[C@H](NC(=O)CCCCCCCCCCCCCCCCCCC(=O)O)C(=O)O)C(=O)N[C@@H](CC(N)=O)C(=O)N[C@@H]([C@@H](C)O)C(=O)N[C@@H](C)C(=O)N[C@@H]([C@@H](C)O)C(=O)N1)[C@@H](C)O)C(=O)N1CCC[C@H]1C(=O)N[C@@H](CO)C(=O)N[C@@H](CO)C(=O)N[C@H](C(=O)N[C@@H](CC(N)=O)C(=O)N[C@H](C(=O)NCC(=O)N[C@@H](CCCNC(=N)N)C(=O)N[C@@H](CC(N)=O)C(=O)N[C@H](C(=O)N[C@@H](Cc1ccc(O)cc1)C(N)=O)[C@@H](C)O)C(C)C)[C@@H](C)O
notes: Analogue of human amylin; also called compound 78
As to B3, the “Ratio hCT/hAmylin binding” value in assay [1] came out at 60.7. In addition, the IC50 (commonly the concentration at which inhibition is half-maximal) in assay [2] worked out at 90.6 nM; in assay [4], 1.3 nM. In assay [3], the “Ratio rCT/rAmylin binding” value came out at 69.9.
